From patent US20030148956A1 (PROCTER AND GAMBLE, published 2003)
Ends that are not written are not given here.

Key:
[1] = biological target: T1, CRF2R; test: cell-based or functional assay
T1 sequence (Q13324 whole entry, species assumed, looked up): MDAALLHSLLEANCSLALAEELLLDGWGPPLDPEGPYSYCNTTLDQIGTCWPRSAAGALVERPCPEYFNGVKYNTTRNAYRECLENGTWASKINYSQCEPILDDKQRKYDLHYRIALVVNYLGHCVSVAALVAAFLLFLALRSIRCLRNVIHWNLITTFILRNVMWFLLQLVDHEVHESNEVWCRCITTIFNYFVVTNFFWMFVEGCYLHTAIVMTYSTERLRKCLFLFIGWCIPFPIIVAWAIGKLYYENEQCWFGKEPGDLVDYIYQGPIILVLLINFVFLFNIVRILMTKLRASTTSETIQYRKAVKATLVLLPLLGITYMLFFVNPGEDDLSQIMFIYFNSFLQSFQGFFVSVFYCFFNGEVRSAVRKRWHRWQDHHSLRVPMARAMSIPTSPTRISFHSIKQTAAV

[2] = biological target: CRF1R; test: cell-based or functional assay

Binder | CRF2R EC50 [1] | CRF2R Emax [1] | CRF1R EC50 [2] | CRF1R Emax [2]
Ac-IVLSLDVPIGLLQILLEQEKARAAREQATTNARILARV-NH2 (not fully specified) [SEQ ID NO 107] | 12.1 nM |  |  | 
SQEPPISLDLPLELLREVLEMTKADQLAQQAHSNRKLLDIA-NH2 [SEQ ID NO 89] | 100 nM | 12.7% |  | 
ZGPPISIDLSIGLLRKMIEIEKQEKEKQQAANNRLLLDTI (C-terminal amide) [SEQ ID NO 25] | 81 nM | 81.9% | 677 nM | 92.3%
ZGPPISIDLPTVLLRKMIEIEKQEKEKQQAANNRLLLDTI (C-terminal amide) [SEQ ID NO 46] | > 100 nM | 100% | > 1000 nM | 17%
ZGPPISIDLPQQLLRKMIEIEKQEKEKQQAANNRLLLDTI (C-terminal amide) [SEQ ID NO 198] | 29.9 nM | 100% |  | 
ZGPPISIDLPIFLLRKMIEIEKQEKEKQQAANNRLLLDTI (C-terminal amide) [SEQ ID NO 29] | 16 nM | 100% | > 1000 nM | 79%
ZGPPISIDLPTTLLRKMIEIEKQEKEKQQAANNRLLLDTI (C-terminal amide) [SEQ ID NO 42] | > 100 nM | 88% | > 1000 nM | 10%
ZGPPISIDLPYYLLRKMIEIEKQEKEKQQAANNRLLLDTI (C-terminal amide) [SEQ ID NO 40] | 6.95 nM | 93% | 102 nM | 99%
ZGPPISIDLPIDLLRKMIEIEKQEKEKQQAANNRLLLDTI (C-terminal amide) [SEQ ID NO 28] | 100 nM | 15% | > 1000 nM | 2%
ZGPPISIDLPIPLLRKMIEIEKQEKEKQQAANNRLLLDTI (C-terminal amide) [SEQ ID NO 26] | 91.8 nM | 86% | > 1000 nM | 16%
ZGPPISIDLPINLLRKMIEIEKQEKEKQQAANNRLLLDTI (C-terminal amide) [SEQ ID NO 37] | > 100 nM | 51% | > 1000 nM | 5%
ZGPPISIDLPQYLLRKMIEIEKQEKEKQQAANNRLLLDTI (C-terminal amide) [SEQ ID NO 27] | 10.7 nM | 96% | 325 nM | 100%
ZGPPISIDLPIKLLRKMIEIEKQEKEKQQAANNRLLLDTI (C-terminal amide) [SEQ ID NO 34] | > 100 nM | 45% | > 1000 nM | 11%
ZGPPISIDLPIVLLRKMIEIEKQEKEKQQAANNRLLLDTI (C-terminal amide) [SEQ ID NO 31] | 30.8 nM | 100% | > 1000 nM | 18%
ZGPPISIDLPILLLRKMIEIEKQEKEKQQAANNRLLLDTI (C-terminal amide) [SEQ ID NO 35] | 15.6 nM | 88% | > 1000 nM | 74%
ZGPPISIDLPIRLLRKMIEIEKQEKEKQQAANNRLLLDTI (C-terminal amide) [SEQ ID NO 38] | 71.9 nM | 91% | > 1000 nM | 11%
ZGPPISIDLPEYLLRKMIEIEKQEKEKQQAANNRLLLDTI (C-terminal amide) [SEQ ID NO 48] | 100 nM | 14% | 1000 nM | 21%
ZGPPISIDLPTFLLRKMIEIEKQEKEKQQAANNRLLLDTI (C-terminal amide) [SEQ ID NO 44] | 19.1 nM | 87% | 944 nM | 64%
ZGPPISIDLPTSLLRKMIEIEKQEKEKQQAANNRLLLDTI (C-terminal amide) [SEQ ID NO 43] | > 100 nM | 67% | > 1000 nM | 10%
ZGPPISIDLPTDLLRKMIEIEKQEKEKQQAANNRLLLDTI (C-terminal amide) [SEQ ID NO 49] | > 100 nM | 37% | > 1000 nM | 15%
ZGPPISIDLPAYLLRKMIEIEKQEKEKQQAANNRLLLDTI (C-terminal amide) [SEQ ID NO 32] | 20.2 nM | 98% | 606 nM | 94%
ZGPPISIDLPTKLLRKMIEIEKQEKEKQQAANNRLLLDTI (C-terminal amide) [SEQ ID NO 45] | > 100 nM | 44% | > 1000 nM | 7%
ZGPPISIDLPQVLLRKMIEIEKQEKEKQQAANNRLLLDTI (C-terminal amide) [SEQ ID NO 197] | 48.1 nM | 94% |  | 
ZGPPISIDLPIALLRKMIEIEKQEKEKQQAANNRLLLDTI (C-terminal amide) [SEQ ID NO 47] | > 100 nM | 66% | 1000 nM | 12%
ZGPPISIDLPVYLLRKMIEIEKQEKEKQQAANNRLLLDTI (C-terminal amide) [SEQ ID NO 39] | 58.2 nM | 94% | 1000 nM | 63%
ZGPPISIDLPTWLLRKMIEIEKQEKEKQQAANNRLLLDTI (C-terminal amide) [SEQ ID NO 41] | 18.3 nM | 100% | > 1000 nM | 43%
ZGPPISIDLPIILLRKMIEIEKQEKEKQQAANNRLLLDTI (C-terminal amide) [SEQ ID NO 36] | 14.8 nM | 73% | > 1000 nM | 33%
ZGPPISIDLSLELLRKMIEIEKQEKEKQQAANNALLLATI (C-terminal amide) [SEQ ID NO 30] | 18.7 nM | 85.5% | 100 nM | 100%
Ac-IVLSLDVPIGLLQILLEQEKARAAREQATTNARILARV-NH2 [SEQ ID NO 3] | 12.1 nM |  |  | 
IVLSLDVPIGLLQILLEQEKARAAREQATTNARILARV-NH2 [SEQ ID NO 121] | 5.67 nM |  |  | 
